In patent US20030004314A1 (published 2003):
Numbering of substitutions follows the chain as printed. Numbers in names are those of the source. One block for each binder: values may come before it.

What was measured:
Experiment in all cases: cell-based or functional assay
[1] = molecular target: T1, HUVEC IL-4 receptor (IL-4Rα/γ-like receptor component) (human, UniProt P24394 26-825)
[2] = molecular target: T2, T cell IL-4 receptor (IL-4Rα/IL-2Rγ) (human, UniProt P24394 26-825; P31785 23-369)
T2 sequence (looked up) 1: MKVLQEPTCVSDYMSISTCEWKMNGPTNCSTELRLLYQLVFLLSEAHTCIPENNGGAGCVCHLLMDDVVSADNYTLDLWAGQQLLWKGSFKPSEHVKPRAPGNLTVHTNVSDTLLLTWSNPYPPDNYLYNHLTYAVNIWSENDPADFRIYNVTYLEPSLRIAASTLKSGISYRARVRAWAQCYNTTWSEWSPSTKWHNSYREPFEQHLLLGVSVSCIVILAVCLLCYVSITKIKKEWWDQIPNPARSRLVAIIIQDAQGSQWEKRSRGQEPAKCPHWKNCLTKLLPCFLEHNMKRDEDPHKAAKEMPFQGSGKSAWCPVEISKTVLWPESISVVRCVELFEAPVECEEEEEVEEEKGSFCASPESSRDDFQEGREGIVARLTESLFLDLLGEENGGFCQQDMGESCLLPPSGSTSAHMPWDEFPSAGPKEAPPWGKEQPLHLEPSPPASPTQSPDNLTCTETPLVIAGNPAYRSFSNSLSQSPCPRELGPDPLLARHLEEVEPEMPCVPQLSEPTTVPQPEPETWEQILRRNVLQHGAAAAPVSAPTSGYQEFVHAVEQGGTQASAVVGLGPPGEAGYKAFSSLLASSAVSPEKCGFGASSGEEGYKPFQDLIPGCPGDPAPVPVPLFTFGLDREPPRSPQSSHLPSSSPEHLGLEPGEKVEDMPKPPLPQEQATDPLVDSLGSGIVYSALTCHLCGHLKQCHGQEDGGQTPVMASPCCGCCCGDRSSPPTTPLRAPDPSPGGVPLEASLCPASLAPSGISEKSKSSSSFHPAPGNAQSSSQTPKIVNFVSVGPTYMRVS
T2 sequence (looked up) 2: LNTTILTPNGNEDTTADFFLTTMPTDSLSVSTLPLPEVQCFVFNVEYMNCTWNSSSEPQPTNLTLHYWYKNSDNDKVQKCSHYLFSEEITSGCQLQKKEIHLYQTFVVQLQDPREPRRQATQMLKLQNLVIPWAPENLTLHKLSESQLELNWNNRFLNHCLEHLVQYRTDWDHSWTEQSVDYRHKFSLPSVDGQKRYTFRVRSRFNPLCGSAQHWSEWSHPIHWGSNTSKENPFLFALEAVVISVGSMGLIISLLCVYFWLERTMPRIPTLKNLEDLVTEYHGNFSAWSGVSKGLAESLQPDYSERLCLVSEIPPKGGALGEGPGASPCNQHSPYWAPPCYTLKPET

[3] = molecular target: T1, HUVEC IL-4 receptor (IL-4Rα/γ-like …); remark: listed apart in the source

IC50, HUVEC antagonist assay (IL-4-induced IL-6 secretion) [1]: ~60 nM
1° T cell proliferation, EC50, pM [2]: 65 pM
B1: IL-4 mutein R121E (ligand)
chain: HKCDITLQEIIKTLNSLTEQKTLCTELTVTDIFAASKNTTEKETFCRAATVLRQFYSHHEKDTRCLGATAQQFHRHKQLIRFLKRLDRNLWGLAGLNSCPVKEANQSTLENFLERLKTIMEEKYSKCSS

1° T cell proliferation, EC50, pM [2]: 100 pM
HUVEC, IL-6 secretion, EC50, pM [3]: 40 pM
B2: IL-4 mutein R121I (ligand)
chain: B1 chain with E121I

1° T cell proliferation, EC50, pM [2]: 150 pM
HUVEC, IL-6 secretion, EC50, pM [3]: 20 pM
B3: IL-4 mutein R121A (ligand)
chain: B1 chain with E121A

1° T cell proliferation, EC50, pM [2]: 150 pM
HUVEC, IL-6 secretion, EC50, pM [3]: 40 pM
B4: IL-4 mutein R121H (ligand)
chain: B1 chain with E121H

1° T cell proliferation, EC50, pM [2]: 150 pM
HUVEC, IL-6 secretion, EC50, pM [3]: 20 pM
B5: IL-4 mutein R121T (ligand)
chain: B1 chain with E121T

1° T cell proliferation, EC50, pM [2]: 250 pM
HUVEC, IL-6 secretion, EC50, pM [3]: 200 pM
B6: IL-4 mutein Y124Q (ligand)
chain: B1 chain with E121R, Y124Q

1° T cell proliferation, EC50, pM [2]: 750 pM
HUVEC, IL-6 secretion, EC50, pM [3]: 250 pM
B7: IL-4 mutein Y124R (ligand)
chain: B1 chain with E121R, Y124R

IC50, HUVEC antagonist assay (IL-4-induced IL-6 secretion) [1]: ~2.2 nM
antagonist potency relative to R121E, HUVEC antagonist assay [1]: ~27 fold
1° T cell proliferation, EC50, pM [2]: 100 pM
B8: IL-4 mutein T13D/R121E (ligand)
chain: B1 chain with T13D

1° T cell proliferation, EC50, pM [2]: 150 pM
HUVEC, IL-6 secretion, EC50, pM [3]: 100 pM
B9: IL-4 mutein R121K (ligand)
chain: B1 chain with E121K

1° T cell proliferation, EC50, pM [2]: 425 pM
HUVEC, IL-6 secretion, EC50, pM [3]: 350 pM
B10: IL-4 mutein Y124S (ligand)
chain: B1 chain with E121R, Y124S

1° T cell proliferation, EC50, pM [2]: 300 pM
HUVEC, IL-6 secretion, EC50, pM [3]: 350 pM
B11: IL-4 mutein Y124T (ligand)
chain: B1 chain with E121R, Y124T

1° T cell proliferation, EC50, pM [2]: 150 pM
HUVEC, IL-6 secretion, EC50, pM [3]: 20 pM
B12: IL-4 mutein R121F (ligand)
chain: B1 chain with E121F

1° T cell proliferation, EC50, pM [2]: 100 pM
B13: IL-4 mutein R121D (ligand)
chain: B1 chain with E121D

1° T cell proliferation, EC50, pM [2]: 150 pM
HUVEC, IL-6 secretion, EC50, pM [3]: 65 pM
B14: IL-4 mutein Y124A (ligand)
chain: B1 chain with E121R, Y124A

1° T cell proliferation, EC50, pM [2]: 150 pM
HUVEC, IL-6 secretion, EC50, pM [3]: 80 pM
B15: IL-4 mutein R121W (ligand)
chain: B1 chain with E121W

1° T cell proliferation, EC50, pM [2]: 15 pM
B16: IL-4 mutein R121T/E122F/Y124Q (ligand)
chain: B1 chain with E121T, E122F, Y124Q

1° T cell proliferation, EC50, pM [2]: 600 pM
HUVEC, IL-6 secretion, EC50, pM [3]: 200 pM
B17: IL-4 mutein Y124A/S125A (ligand)
chain: B1 chain with E121R, Y124A, S125A

1° T cell proliferation, EC50, pM [2]: 150 pM
HUVEC, IL-6 secretion, EC50, pM [3]: 35 pM
B18: IL-4 mutein R121N (ligand)
chain: B1 chain with E121N

1° T cell proliferation, EC50, pM [2]: 100 pM
HUVEC, IL-6 secretion, EC50, pM [3]: 650 pM
B19: IL-4 mutein R121P (ligand)
chain: B1 chain with E121P
